Measured values taken from patent US20190350938A1 (BROAD INSTITUTE, published 2019).

T1: P2D SLC16A11^REF-V5 (human, UniProt Q8NCK7 1-447)
T1 construct: bait of the proteomics study; also called P2D WT SLC16A11; WT SLC16A11
T1 sequence: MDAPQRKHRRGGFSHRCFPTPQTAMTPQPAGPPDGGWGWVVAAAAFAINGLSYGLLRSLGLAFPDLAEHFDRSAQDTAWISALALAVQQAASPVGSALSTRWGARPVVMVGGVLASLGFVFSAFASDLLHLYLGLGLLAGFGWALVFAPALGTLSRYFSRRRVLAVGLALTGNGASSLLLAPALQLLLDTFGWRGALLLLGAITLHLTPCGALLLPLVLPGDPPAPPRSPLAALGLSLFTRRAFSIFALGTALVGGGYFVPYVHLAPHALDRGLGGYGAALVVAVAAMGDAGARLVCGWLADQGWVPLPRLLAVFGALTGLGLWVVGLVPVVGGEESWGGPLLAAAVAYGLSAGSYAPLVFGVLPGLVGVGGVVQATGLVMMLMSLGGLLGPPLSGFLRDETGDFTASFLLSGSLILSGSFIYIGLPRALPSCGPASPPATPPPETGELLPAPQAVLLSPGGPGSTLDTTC

B1: SLC16A11^T2D-V5 (other, not shown: small tags and cut ends)
chain: MPAPQRKHRRGGFSHRCFPTPQTAMTPQPAGPPDGGWGWVVAAAAFAINGLSYGLLRSLGLAFPDLAEHFDRSAQDTAWISALALAVQQAASPVGSALSTRWGARPVVMVGGILASLGFVFSAFASGLLHLYLGLGLLAGFGWALVFAPALGTLSRYFSRRRVLAVGLALTGNGASSLLLAPALQLLLDTFGWRGALLLLGAITLHLTPCGALLLPLVLPGDPPAPPRSPLAALGLSLFTRRAFSIFALGTALVGGGYFVPYVHLAPHALDRGLGGYGAALVVAVAAMGDAGARLVCGWLADQGWVPLPRLLAVFGALTGLGLWVVGLVPVVGGEESWGSPLLAAAVAYGLSAGSYAPLVFGVLPGLVGVGGVVQATGLVMMLMSLGGLLGPPLSGFLRDETGDFTASFLLSGSLILSGSFIYIGLPRALPSCGPASPPATPTPETGELLPAPQAVLLSPGGPGSTLDTTCLPTFLYKVVGKPIPNPLLGLDST
B2: Embigin (protein, human, UniProt Q6PCB8 33-327, looked up)
chain: DGSAPDSPFTSPPLREEIMANNFSLESHNISLTEHSSMPVEKNITLERPSNVNLTCQFTTSGDLNAVNVTWKKDGEQLENNYLVSATGSTLYTQYRFTIINSKQMGSYSCFFREEKEQRGTFNFKVPELHGKNKPLISYVGDSTVLTCKCQNCFPLNWTWYSSNGSVKVPVGVQMNKYVINGTYANETKLKITQLLEEDGESYWCRALFQLGESEEHIELVVLSYLVPLKPFLVIVAEVILLVATILLCEKYTQKKKKHSDEGKEFEQIEQLKSDDSNGIENNVPRHRKNESLGQ
B3: Basigin (other, human, UniProt P35613-2 22-269, looked up)
chain: AAGTVFTTVEDLGSKILLTCSLNDSATEVTGHRWLKGGVVLKEDALPGQKTEFKVDSDDQWGEYSCVFLPEPMGTANIQLHGPPRVKAVKSSEHINEGETAMLVCKSESVPPVTDWAWYKITDSEDKALMNGSESRFFVSSSQGRSELHIENLNMEADPGQYRCNGTSSKGSDQAIITLRVRSHLAALWPFLGIVAEVLVLVTIIFIYEKRRKPEDVLDDDDAGSAPLKSSGQHQNDKGKNVRQRNSS
modifications: glycosylated (runs as multiple bands)
notes: Endogenous protein co-precipitated from HEK293T lysate; also called BSG; endogenous BSG

biological target: B3; experiment: cell-based or functional assay

B1 was tested, and the “pyruvate influx and efflux rates (pyronic FRET assay, 293T cells)” value was ~0.5 fold of WT SLC16A11.

biological target: T1, P2D SLC16A11^REF-V5; experiment: anti-V5 IP of P2D SLC16A11REF-V5 from HEK293T lysate, iTRAQ quantitative MS; enrichment vs empty vector control IP

Point of comparison: “7-dehydrocholesterol reductase (from UniProt Q9UBM7 1-475) (enzyme)”, B.A. logFC 1.69 logFC. Against it:
- BAG2 (from UniProt O95816 2-211) — lower, 1.26 logFC
- CANX (from UniProt P27824 56-627) — lower, 1.38 logFC
- DDOST (from UniProt P39656 43-456) — lower, 1.65 logFC
- E3 ubiquitin-protein ligase RNF5 (from UniProt Q99942 2-180) (enzyme) — lower, 1.42 logFC
- EMC3 (from UniProt Q9P0I2 2-261) — lower, 1.65 logFC
- FAS-associated factor 2 (from UniProt Q96CS3 2-445) — lower, 1.23 logFC
- HSD17B12 (from UniProt Q53GQ0 1-312) (enzyme) — lower, 1.26 logFC
- PSMD14 (from UniProt O00487 1-310) — lower, 1.31 logFC
- Proteasome subunit alpha type-1 (from UniProt P25786 1-269) — lower, 1.2 logFC
- SACM1L (from UniProt Q9NTJ5 1-587) (enzyme) — lower, 1.26 logFC
- SEC61A1 (from UniProt B4DR61 1-482) — higher, 1.84 logFC
- SEC61A2 (from UniProt Q9H9S3 1-476) — lower, 1.59 logFC
- SLC25A3 (from UniProt Q00325 50-361) — lower, 1.65 logFC
- SURF4 (from UniProt O15260 2-269) — lower, 1.33 logFC
- TIMM23B (from UniProt Q5SRD1 1-188) — lower, 1.22 logFC
- Transmembrane protein 33 (from UniProt P57088 2-247) — lower, 1.25 logFC
- UBAC2 (from UniProt Q8NBM4 36-344) — lower, 1.21 logFC
- B2 — lower, 1.55 logFC

Point of comparison: AUP1 (from UniProt Q9Y679 1-410), BA log fold change (log fold change) 1.1. Against it:
- 7-dehydrocholesterol reductase (from UniProt Q9UBM7 1-475) (enzyme) — higher, 1.69
- ADCK4 (from UniProt Q96D53 1-544) — within 0.2 log units, 1.11
- AGPAT6 (from UniProt Q86UL3 38-456) (enzyme) — within 0.2 log units, 1.16
- ATP1B3 (from UniProt P54709 1-279) — within 0.2 log units, 1.18
- BAG2 (from UniProt O95816 2-211) — within 0.2 log units, 1.26
- BAG6 (from UniProt P46379 1-1162) — within 0.2 log units, 1.08
- BRAT1 (from UniProt Q6PJG6 1-821) — within 0.2 log units, 1.04
- CANX (from UniProt P27824 56-627) — higher, 1.38
- DDOST (from UniProt P39656 43-456) — higher, 1.65
- DNAJB4 (from UniProt Q9UDY4 2-337) — within 0.2 log units, 1.08
- DNAJC3 (from UniProt Q13217 32-504) — within 0.2 log units, 1.22
- DNAJC7 (from UniProt Q99615 2-494) — within 0.2 log units, 1.05
- E3 ubiquitin-protein ligase RNF5 (from UniProt Q99942 2-180) (enzyme) — higher, 1.42
- EMC3 (from UniProt Q9P0I2 2-261) — higher, 1.65
- FAS-associated factor 2 (from UniProt Q96CS3 2-445) — within 0.2 log units, 1.23
- GCN1L1 (from UniProt Q92616 2-2671) — within 0.2 log units, 1.01
- HEATR2 (from UniProt Q86Y56 2-855) — within 0.2 log units, 1.03
- HSD17B12 (from UniProt Q53GQ0 1-312) (enzyme) — within 0.2 log units, 1.26
- KIAA0368 (from UniProt J3KN16 1-2017) — within 0.2 log units, 1.16
- LPCAT1 (from UniProt Q8NF37 1-534) (enzyme) — within 0.2 log units, 1.16
- MAGED1 (from UniProt Q9Y5V3 1-834) — within 0.2 log units, 1.09
- PHGDH (from UniProt O43175 2-533) (enzyme) — within 0.2 log units, 1.11
- PPP6R3 (from UniProt Q5H9R7 1-879) — within 0.2 log units, 1.18
- PSMA3 (from UniProt P25788 2-255) — within 0.2 log units, 1.09
- PSMC3 (from UniProt P17980 1-439) — within 0.2 log units, 1.16
- PSMD2 (from UniProt Q13200 1-908) — within 0.2 log units, 0.98
- PSMD11 (from UniProt O00231 1-423) — within 0.2 log units, 1.02
- PSMD12 (from UniProt O00232 2-456) — within 0.2 log units, 1.18
- PSMD14 (from UniProt O00487 1-310) — higher, 1.31
- Proteasome subunit alpha type-1 (from UniProt P25786 1-269) — within 0.2 log units, 1.2
- QIL1 (from UniProt Q5XKP0 1-118) — within 0.2 log units, 1.08
- SACM1L (from UniProt Q9NTJ5 1-587) (enzyme) — within 0.2 log units, 1.26
- SCFD1 (from UniProt Q8WVM8 2-642) — within 0.2 log units, 1.08
- SEC61A1 (from UniProt B4DR61 1-482) — higher, 1.84
- SEC61A2 (from UniProt Q9H9S3 1-476) — higher, 1.59
- SLC25A3 (from UniProt Q00325 50-361) — higher, 1.65
- SLC25A22 (from UniProt Q9H936 1-323) — within 0.2 log units, 1.2
- STT3A (from UniProt P46977 1-705) (enzyme) — within 0.2 log units, 1.27
- SURF4 (from UniProt O15260 2-269) — higher, 1.33
- TECR (from UniProt Q9NZ01 1-308) (enzyme) — the same, 1.1
- TIMM23B (from UniProt Q5SRD1 1-188) — within 0.2 log units, 1.22
- TUBA1B (from UniProt P68363 1-451) — within 0.2 log units, 1.05
- TUBA1C (from UniProt F5H5D3 1-519) — within 0.2 log units, 1.04
- TUBA4A (from UniProt P68366 1-448) — within 0.2 log units, 1.02
- Transmembrane protein 33 (from UniProt P57088 2-247) — within 0.2 log units, 1.25
- UBAC2 (from UniProt Q8NBM4 36-344) — within 0.2 log units, 1.21
- VDAC2 (from UniProt P45880 1-309) — within 0.2 log units, 1.14
- XPO5 (from UniProt Q9HAV4 2-1204) — within 0.2 log units, 1.14
- B2 — higher, 1.55

B3 was tested, and the “BA log fold change” value was 1.43 log fold change.
